This is an account of results in IntAct's records for PubMed 25710501.

B1: Granule-bound starch synthase 1, chloroplastic/amyloplastic (Arabidopsis thaliana (Mouse-ear cress)), Q9MAQ0 (parent)
chain: MATVTASSNFVSRTSLFNNHGASSCSDVAQITLKGQSLTHCGLRSFNMVDNLQRRSQAKPVSAKSSKRSSKVKTAGKIVCEKGMSVIFIGAEVGPWSKTGGLGDVLGGLPPALAARGHRVMTICPRYDQYKDAWDTCVVVQIKVGDKVENVRFFHCYKRGVDRVFVDHPIFLAKVVGKTGSKIYGPITGVDYNDNQLRFSLLCQAALEAPQVLNLNSSKYFSGPYGEDVVFVANDWHTALLPCYLKSMYQSRGVYMNAKVVFCIHNIAYQGRFAFDDYSLLNLPISFKSSFDFMDGYEKPVKGRKINWMKAAILEAHRVLTVSPYYAQELISGVDRGVELHKYLRMKTVSGIINGMDVQEWNPSTDKYIDIKYDITTVTDAKPLIKEALQAAVGLPVDRDVPVIGFIGRLEEQKGSDILVEAISKFMGLNVQMVILGTGKKKMEAQILELEEKFPGKAVGVAKFNVPLAHMITAGADFIIVPSRFEPCGLIQLHAMRYGTVPIVASTGGLVDTVKDGYTGFHIGRFNVKCEVVDPDDVIATAKAVTRAVAVYGTSAMQEMVKNCMDQDFSWKGPARLWEKVLLSLNVAGSEAGTEGEEIAPLAKENVATP
partner: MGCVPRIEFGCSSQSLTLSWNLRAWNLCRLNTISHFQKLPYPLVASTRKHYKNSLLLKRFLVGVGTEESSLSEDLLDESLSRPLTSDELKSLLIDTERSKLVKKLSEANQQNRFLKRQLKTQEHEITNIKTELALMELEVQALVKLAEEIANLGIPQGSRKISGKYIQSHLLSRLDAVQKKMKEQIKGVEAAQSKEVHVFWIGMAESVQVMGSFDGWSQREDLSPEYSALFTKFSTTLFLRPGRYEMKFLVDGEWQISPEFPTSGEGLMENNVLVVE

The variants in the first assay derive from B1. To be noted: with ptst_arath PTST.
For the variant E449K, the “effect of a mutation on the interaction” value is given as “decreasing interaction strength”.
Consider E452K, for which the “effect of a mutation on the interaction” value is recorded as “disrupting interaction strength”.
The same measure, in the same setting: with K441E;E452K the entry was “disrupting interaction strength”.
Same read-out and setting: with K441E the entry was “decreasing interaction strength”.

The variants in the next assay derive from B1. To be noted: with ptst_arath PTST. This is another data set of the same source.
On to E452K, for which the “effect of a mutation on the interaction” value is recorded as “decreasing interaction strength”.
Still for that read-out and setting: then K441E;E452K, with “decreasing interaction strength”.
